Assay: yeast display, Sf9 membrane polyspecificity reagent, FACS + sequencing; frameworks hold sequencing errors
Outline: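 After 36–48 hours of galactose induction, yeast (Saccharomyces cerevisiae BJ5465) displaying a synthetic nanobody library were stained at 4 °C for 1 hour with 10% biotinylated, detergent-solubilized Sf9 membrane reagent. Streptavidin microbeads enriched the stained cells before FACS sorting into low and high (top ~1%) gates on anti-HA and streptavidin fluorescence. Each clone's polyreactivity label reflects its gate of origin.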

| Sequence | polyreactivity (PSR sort gate) |
| --- | --- |
| QVQLVESGGGLVQAGGTLSLSCAATGRNFYCYAMGWYRQAHGKERELVAAINWSGGTTYYADSVKGRFTISRDNAKNTVYLQMNSLKPEDTAVYYSAADRILEMGYWGQGTQVTVSS | low polyreactivity |
| QVQLVESGGGLVQAGGTRRLSCAASGSIFYYYAMGWYRQAPGKERELVAAINRGVGSTFYADSVKGRFTISRDNAKNTVYLQMNSLKPEDTAVYYCAVELNQVTPGLGYITLDYWGQGTQVTVSS | low polyreactivity |
| QVQLVESGGGLVQAGLTLRLSCAASGRIFYPYAMVWYRQAPGKERELVAYNTRSGGSTRYADSVKGRFTISRDNAKNTLYLQMNSLITEDTAVDYCAARTWGRRSSSWGGYYWGQGTQVTVSS | high polyreactivity |
| QVQLVESGGGLVQAGRNLRLSCAASGRTFYNNVMGWYRQAPGKERELVAAIDWNDGSTYYADSVKGRFTISRDKAKNTVFLQMNSLKPEDTAVYYCAADAYGYGGDSWGQGTQVTVSS | low polyreactivity |
| QVQLVESGGGLVQAGRSHRLSCAASGIIFYKYAMGWYRQAPVKERELVAAISGTGGSTYYADSVKGRFTISRDNAKNTVYLQMNSVTAEDPAVYYCAATHYSFSWGYDYWGQGTQGTVSS | high polyreactivity |
| QVQLVESGGGLVQAGRSIRLSCAASGSTFAKYAMGWYRQAPAKERELVAAISSSGSRTYYADSVKGRFTISRDYAKNTVYLQMNILKTEDTAVYYCAALIVKPGGRVYYGGQGTQVTVSS | high polyreactivity |
| QVQLVESGGGLVQAGRSLRLICAASGRTFVYYAMGWYRPAPGKERELVAAITWSGGRTYYADSVKGRFTISRDNAKNTVYLQMNSLKQEDTAVYYCNRDQWPWESGYAYNYWGQGTQVTVSS | low polyreactivity |
| QVQLVESGGGLVQAGRSLRLLSAASGSSIYFNGMGWYRQAPGKERELVAAITSGGSTDYADSVKGRFTISRDNEKNSVYLLMYSLKPEDTAVYYCNVQNGDRQITGYDYWGLGTQVTVSS | low polyreactivity |
| QVQLVESGGGLVQAGRSLRLSCAASGFPFYQYAMGWYRQAPGQERELVAAITWSRGDTYYADSVKGRFTISRDNAKNTVYLQMNSLKPEDSAVFNCNADDRPRGPYYDSFDYRGDYWGQGTQVTVSS | low polyreactivity |
| QVQLVESGGGLVQAGRSLRLSCAASGLIFVNYAMGWYRPAPGHERELVAASTRSGGRTYYADSVKGRFTISRDNAKNRRYLHMNSLKPVDTAVYYCAAYVRSATLRVNYGYWGQGTQVTVSS | high polyreactivity |
| QVQLVESGGGLVQAGRSLRLSCAASGLISRRNAMGWYRQAPGKQRELVAAISTGSSTNYADSVKGRFTISRDNAKNTVYLQMNSLKPEDTAVYYCASTQYWWSTLGIRDDYWGQGTQVTVSS | low polyreactivity |
| QVQLVESGGGLVQAGRSLRLSCAASGLTFKWYAMGWYRQAPGKERELVAAISRDGSTYYADSVKGRFTISRDNAKNTVYLQMNSLKPEDTAVYDCAADIWPSSLLADEYDYWGQGTQVTVSS | high polyreactivity |
| QVQLVESGGGLVQAGRSLRLSCAASGRIFGWYAMGWYRQAPGKERELVAAIRWSGGSTYADSVKGRFTISRDNAKNTVYLQMNSLKPEDTAVYYCAALQRTGPYAGSSGYWGQGTQVTVSS | high polyreactivity |
| QVQLVESGGGLVQAGRSLRLSCAASGRIFKYNAMGWYRQAPGKERELVAVITSGGSTYYADSEKGRFTISRDNAMNTDSLQKNSLKQVDTAVYYCNSPYARYYTRYSAYDYWGQGTQVTVSS | low polyreactivity |
| QVQLVESGGGLVQAGRSLRLSCAASGRIFRVNAMGWYRQAPRKERQLVAAISVRGGSTYYADSVKGRFTISRDNAKNTVYLQMNSLKPEDTAVYYCAAPLVYFTPRYDYWGQGTQVTVSS | high polyreactivity |
| QVQLVESGGGLVQAGRSLRLSCAASGRIFYPYAMGWYRQAPGKERELVAAIRWSSGNTRYADSVKGRFTISRDNAKNTVYLQMNSLKPEDTAVYYCAADTTVFFYRYDYWGQGTQVTVSS | high polyreactivity |
| QVQLVESGGGLVQAGRSLRLSCAASGSIFTYYAMGWYRQGPGQERELVAAINWSGGGTYYADSLKGRFTISRDNAKINVYLQMNSLKPEDTAVYYCNALRKTYRLDYWGQGTQVTLSS | high polyreactivity |
| QVQLVESGGGLVQAGRSLRLSCAASGSTFGSNAMGWYRLAPGKERELVAAITRRGGSTYYADSEKGRFTISRDNAKNTVYLQMNSLKPEDTAVYYCAAQIHPRRDYSAFDYWGQGTQVTVSS | low polyreactivity |
| QVQLVESGGGLVQAGRSLRLSCAASGSTFRQNAMGWYRQAPGKERELVAGITFSSGSTYYADSVKGRFTISRDIAKNTLYLQMNSLKPEDTAVYYCAVRNASKNRKYYYWGQGTQVTVSS | high polyreactivity |
| QVQLVESGGGLVQAGRSLRLSCAASGSTFWPNAMGWYRPAPGKERELVAAITSGGRTKYADSVKGRFTISRDNAKNTVYLQMNSLKPEDTAFYYCAKRKGDRGAWIHAYGWEDVDYWGQGTQVTVSS | low polyreactivity |
| QVQLVESGGGLVQAGRSLRLSCAASGSTIVGYAIGWYRQAPGKDRELVAAISGSGTSTYYADSVKGRFTISRDNAKNTVYLHMISMKPEHTAVYYCIADPIFVYSSYNFWGQGTQVTVSS | low polyreactivity |

| Sequence | polyreactivity (PSR sort gate) |
| --- | --- |
| QVQLVESGGGLVQAGRSLRLSCAASGTTFVIYDMGWSRQAPGKERDLVAGNSYSGGSTYYADSVKGRFTISRDNAKNTVYLQMNSLKPEDTAVYYCNAGVLVLLYAYLPSDLEYWGQGTQVTVSS | low polyreactivity |
| QVQLVESGGGLVQAGRSLRLSCAASGYTFYFYAKGWSRQAPGKDRELVASMTWRGGSPYYADSVKGRFTISRDNAKNTVYLQMNSLKPEETADYYCAKHVYYIYDYWGQGTQVTVSS | low polyreactivity |
| QVQLVESGGGLVQAGRSLRLSCAPSGLTISSNAMGGYRQAPGKERELVAGISRRGGRTYYADSVKGRFTISRDTAKHTVYLQMNSLKPEDTAVYYCAADRVGNSYDYWGQGTQGTVSS | high polyreactivity |
| QVQLVESGGGLVQAGRSLRLSCSASGFSFSFYSMGWYRQAPGKERELVAAISQSGGSTYYADSVKGRFIISLDNAKHTVYLQKNSLKPEDTAVYYCNRGLRRHQSDDYWGQGTQVTVSS | high polyreactivity |
| QVQLVESGGGLVQAGRSLRLTCAASGRIFNPYAMGWYRQAPGKERELVAAISRGGRTYYADSVKGRFTISRDNAKNTVYLQMNSLKPEDTAVYYCNAGRGLREDDYWGQGTQVTVSS | low polyreactivity |
| QVQLVESGGGLVQAGRSNRLSCAASGSLFPDYTMGWYRQAPGQERELVAGSTWNRGGTYYADSVKGRFTISRDNAKNTVYLQMNILKPEDTAVYYCAAEWSGSRSSGAWGPYNYWGQGSQVTVSS | low polyreactivity |
| QVQLVESGGGLVQAGRTLRLSCAASGFIFFDNAMGWYRQAPGKERELVAVISSSGTSTYYADAVKGRFTISRDNAKNTVYLQMNSLKPDDTAVYYCNATARTGVYLESDYWGQGTQVTVSS | low polyreactivity |
| QVQLVESGGGLVQAGRTLRLSCAASGSNFSVYVMGWYRQAPGKEWELVAAISWSDSDTYYADSVKGRFTISRDNATNNVYLLMNSLNPEDTAVYYCAAETFDYHDYIANGSGEYDYWGQGNQVTVSS | high polyreactivity |
| QVQLVESGGGLVQAGVSLLLSCAASGRTFYANAMGWYSQAPGKEREFVAAISYGTGGTYYADSVKGRFTISRDNAKNTVYLQMNTLKPEDTAVYYCAASLYWGIYGWMGYWGQGTQVTVSS | high polyreactivity |
| QVQLVESGGGLVQAGVSLRISCAPSGRTFIIYAMGRYRQAPGKERELVADISSGGSTYYADSVKGRFKISRDNAKNTVYLHMNSLKPEDTAVYYCAAQSWYYPIGYDYWGLGTQVTVSS | low polyreactivity |
| QVQLVESGGGLVQAGVSLRLICAATGSIFWRKTKGWYRQAPGKEREFVAAISTSGSTYYADSVKGRFTISRDNAKNTVYLKMNSLKPEDTAVYYCAADASRGYQREGGYWGQGTQVTVSS | high polyreactivity |
| QVQLVESGGGLVQAGVSLRLSCAASGFISDWYAMGWYRQAPGNERELVATLDWIGGSTYADSVKGRFTISRDNAKNTVYFQMNSLKPEDTAVYYCAADSFFIAWYGAHYAYDDWGQGTQVTVSS | low polyreactivity |
| QVQLVESGGGLVQAGVSLRLSCAASGGTFPKYTMGWYRQAPGKERELVAAITSRGTRTYYADSVKARFTISRDNAKNTVYLQMNSLKTEDTAVYYCAAYFDRHRYDYWGQGTQVTVSS | high polyreactivity |
| QVQLVESGGGLVQAGVSLRLSCAASGITFVNNDMGWYRQAPGKERELVAAISSSGGSTYYADSVKGRFTISRDNAKNTDYLQMNSLKPEDTAVYYCAAPWYNAGRFRYYYWGQGTQVTVSS | high polyreactivity |
| QVQLVESGGGLVQAGVSLRLSCAASGITIKGNAKGWYRQAPGKERELVAAISRRGGNTYYADSVKGRFTISRDNAKNTVYLQMNSLKPEDTAVYYCAAEYNQSFDYWGQGTQVTVSS | low polyreactivity |
| QVQLVESGGGLVQAGVSLRLSCAASGNAMGWYRQAPGKERELVAAITYGGTTTYYADSVKGRFTISRDNAKNTVYLQMNSLKPEDTAVYYCAADFVFVATPLRYDYWGQGTQVTVSS | low polyreactivity |
| QVQLVESGGGLVQAGVSLRLSCAASGNIFRAYAMGWYRQAPGKERELVAAIDTTGGRTYYADSVKGRFTISRDNAKITVYLLMKSLKPEDTAVYYCAVRAPAYPYYRGFDYWGQGSQVTVSS | low polyreactivity |
| QVQLVESGGGLVQAGVSLRLSCAASGRIFPGYAMGSDRQAPAKERELVAGITWRTARTYYADSVKGRFTISRDNAKNTVYLQMNSLKPEDTAVYYCAAVSDYEGNYWGQGTQVTVSS | high polyreactivity |
| QVQLVESGGGLVQAGVSLRLSCAASGRTFGYYAMGWYRPAPGKETELVAASTLSGGSTYYADSVKGRFTISRDNAKNTVYLQMNSLKPEYTAVYYCAAKWWHFYPYDYWGQGTQVTVSS | high polyreactivity |
| QVQLVESGGGLVQAGVSLRLSCAASGRTFRFYAMGWYRQAPGKERELVAAITGSGGSTYYADSVKGRFTISRDNAKNTVYLQMNCLKPEDTAVYYCAASRWREYHASKMDYWGQGTQVTVSS | low polyreactivity |

— the nanobody polyreactivity screen of Harvey et al. (2022)
